Data taken from publication PMC5983913 (Science Advances, 2018).
Like-named read-outs stand apart in the source and are kept apart here.

Key:
[1] = target: T1, N-terminal His-tagged LsrK (E. coli, UniProt P77432 1-530); experiment: enzyme inhibition kinetics
T1 sequence (looked up): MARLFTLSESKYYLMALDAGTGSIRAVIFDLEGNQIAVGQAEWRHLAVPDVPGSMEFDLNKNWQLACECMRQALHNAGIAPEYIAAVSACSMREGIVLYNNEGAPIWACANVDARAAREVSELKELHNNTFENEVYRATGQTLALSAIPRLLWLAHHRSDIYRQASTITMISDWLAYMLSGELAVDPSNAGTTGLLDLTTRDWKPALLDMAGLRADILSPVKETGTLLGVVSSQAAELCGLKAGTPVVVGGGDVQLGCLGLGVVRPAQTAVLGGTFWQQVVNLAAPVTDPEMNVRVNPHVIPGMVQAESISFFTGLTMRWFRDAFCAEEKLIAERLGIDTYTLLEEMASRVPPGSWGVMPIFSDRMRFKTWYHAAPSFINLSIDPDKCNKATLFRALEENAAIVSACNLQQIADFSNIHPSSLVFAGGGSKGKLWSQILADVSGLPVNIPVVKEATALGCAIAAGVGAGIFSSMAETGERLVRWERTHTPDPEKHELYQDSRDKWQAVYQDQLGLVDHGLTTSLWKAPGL

[2] = target: T1, N-terminal His-tagged LsrK; experiment: enzyme inhibition kinetics; remark: listed apart in the source

B1: phosphorylated HPr (natural protein)
chain: not shown
modifications: phosphate group at the H15-ND1 atom (phosphohistidine 15); ^15N-labelled
B1 was tested, and the Ki [1] was 8.4 ± 0.5 µM.

B2: native HPr protein (expressed alone, intact form) (natural protein)
chain: not shown
Work on B2 yielded a Ki [1] of 0.32 ± 0.07 µM.

B3: C-terminal six-His-tagged HPr H15E (natural protein)
chain: not shown
For B3, the Ki [2] was 1.2 ± 0.2 µM and the “fold lower inhibition activity than WT HPr” value [2] was ~5 fold.
